According to article PMC7960543 (The Journal of Biological Chemistry, 2021):
Residue numbers refer to the chain shown, from its start. Names and notes keep the numbering of the source. Bridge positions count the residues as written; N and C are the ends. Ends that are not written are not given here.

T1: recombinant soluble integrin αvβ3, P06756;P05106
T1 chain 1: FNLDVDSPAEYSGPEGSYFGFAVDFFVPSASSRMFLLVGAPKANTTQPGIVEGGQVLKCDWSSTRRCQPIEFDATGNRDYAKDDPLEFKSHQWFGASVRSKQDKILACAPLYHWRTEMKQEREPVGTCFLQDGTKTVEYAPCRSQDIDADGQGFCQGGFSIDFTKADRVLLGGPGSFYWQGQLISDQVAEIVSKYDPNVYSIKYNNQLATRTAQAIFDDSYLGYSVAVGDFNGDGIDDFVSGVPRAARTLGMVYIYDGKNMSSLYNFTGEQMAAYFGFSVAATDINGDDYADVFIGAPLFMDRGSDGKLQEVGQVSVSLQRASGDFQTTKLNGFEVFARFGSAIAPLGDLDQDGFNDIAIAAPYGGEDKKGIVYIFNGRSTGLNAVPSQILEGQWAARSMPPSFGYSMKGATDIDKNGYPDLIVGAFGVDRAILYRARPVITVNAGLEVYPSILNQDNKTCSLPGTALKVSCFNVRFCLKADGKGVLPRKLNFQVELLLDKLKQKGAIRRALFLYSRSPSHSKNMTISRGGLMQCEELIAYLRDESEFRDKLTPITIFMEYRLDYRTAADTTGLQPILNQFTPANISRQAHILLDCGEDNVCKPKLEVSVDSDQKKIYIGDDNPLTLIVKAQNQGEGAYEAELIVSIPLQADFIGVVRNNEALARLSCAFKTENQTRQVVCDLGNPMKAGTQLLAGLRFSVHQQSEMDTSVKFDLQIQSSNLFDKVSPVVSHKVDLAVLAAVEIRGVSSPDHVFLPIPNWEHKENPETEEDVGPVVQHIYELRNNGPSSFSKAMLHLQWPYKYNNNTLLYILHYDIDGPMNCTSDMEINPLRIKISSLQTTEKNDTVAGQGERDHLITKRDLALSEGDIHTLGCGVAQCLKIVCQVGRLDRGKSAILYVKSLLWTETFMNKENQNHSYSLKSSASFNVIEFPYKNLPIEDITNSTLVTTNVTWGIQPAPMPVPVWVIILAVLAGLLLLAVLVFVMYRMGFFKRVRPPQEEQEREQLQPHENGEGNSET
T1 chain 2: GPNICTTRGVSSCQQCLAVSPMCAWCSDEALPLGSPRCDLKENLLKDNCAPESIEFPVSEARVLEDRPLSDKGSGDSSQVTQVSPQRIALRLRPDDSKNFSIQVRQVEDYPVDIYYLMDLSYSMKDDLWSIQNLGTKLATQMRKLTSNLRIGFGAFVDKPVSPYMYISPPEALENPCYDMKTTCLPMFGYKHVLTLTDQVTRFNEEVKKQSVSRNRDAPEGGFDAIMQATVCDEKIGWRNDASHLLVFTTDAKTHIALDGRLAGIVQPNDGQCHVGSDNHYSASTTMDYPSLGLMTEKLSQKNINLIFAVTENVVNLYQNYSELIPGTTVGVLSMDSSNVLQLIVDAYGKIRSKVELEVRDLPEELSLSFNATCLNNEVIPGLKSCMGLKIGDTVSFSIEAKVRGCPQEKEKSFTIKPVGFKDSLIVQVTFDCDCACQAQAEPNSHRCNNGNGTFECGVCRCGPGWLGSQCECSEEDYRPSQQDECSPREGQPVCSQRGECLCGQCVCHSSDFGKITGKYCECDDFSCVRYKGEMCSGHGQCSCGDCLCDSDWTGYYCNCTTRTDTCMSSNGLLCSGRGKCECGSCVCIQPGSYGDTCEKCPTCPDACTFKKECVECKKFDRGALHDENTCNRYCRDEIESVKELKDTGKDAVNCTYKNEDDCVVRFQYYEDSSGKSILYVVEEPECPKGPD

T2: sCD40L (residues 118–261) S128R/E129G HIGM1 mutant (UniProt P29965 118-261, S128R | E129G)
T2 construct: CD40L residues 118–261; HIGM1 (hyper-IgM syndrome type 1) mutation; source: recombinant, site-directed mutagenesis of WT sCD40L, synthesized as for WT
T2 sequence (looked up): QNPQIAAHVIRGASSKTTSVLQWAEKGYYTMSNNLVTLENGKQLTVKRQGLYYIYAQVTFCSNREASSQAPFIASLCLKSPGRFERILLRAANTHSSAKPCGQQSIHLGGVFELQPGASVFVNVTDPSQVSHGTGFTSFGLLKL

T3: sCD40L (residues 118–261) L155P HIGM1 mutant (UniProt P29965 118-261, L155P)
T3 construct: CD40L residues 118–261; HIGM1 mutation; source: recombinant, site-directed mutagenesis of WT sCD40L, synthesized as for WT
T3 sequence (looked up): T2 sequence (looked up) with R11S, G12E, L38P

T4: sCD40L (residues 118–261) G144E HIGM1 mutant (UniProt P29965 118-261, G144E)
T4 construct: CD40L residues 118–261; HIGM1 mutation; source: recombinant, site-directed mutagenesis of WT sCD40L, synthesized as for WT
T4 sequence (looked up): T2 sequence (looked up) with R11S, G12E, G27E

T5: sCD40L (residues 118–261) K143T HIGM1 mutant (UniProt P29965 118-261, K143T)
T5 construct: CD40L residues 118–261; HIGM1 mutation; source: recombinant, site-directed mutagenesis of WT sCD40L, synthesized as for WT
T5 sequence (looked up): T2 sequence (looked up) with R11S, G12E, K26T

B1: disulfide-linked cyclic site 2 peptide of integrin β3 (C260–C288) fused to GST (peptide)
peptide: CRLAGIVQPNDGQSHVGSDNHYSASTTMC
modifications: disulfide 1-29; also: fused to GST
notes: also called cyclic site 2 peptide from β3; 29-mer cyclic β3 peptide
B2: disulfide-linked cyclic site 2 peptide of integrin β1 (C268–C295) fused to GST (peptide)
peptide: CKLGGIVLPNDGQSHLENNMYTMSHYYC
modifications: disulfide 1-28; also: fused to GST
notes: integrin β1 residues 268–295 (site 2); Cloned in pGEX-2T6His; also called the corresponding β1 peptide; 28-mer cyclic β1 peptide
B3: recombinant soluble CD40L (residues 118–261) with no N-terminal KGD motif, wild type S128R; E129G (protein)
chain: T2 sequence (looked up)
B4: recombinant soluble CD40L (residues 118–261) with no N-terminal KGD motif, wild type K143T (protein)
chain: T2 sequence (looked up) with R11S, G12E, K26T
B5: recombinant soluble CD40L (residues 118–261) with no N-terminal KGD motif, wild type (ligand)
chain: T2 sequence (looked up) with R11S, G12E
notes: CD40L (CD40 ligand), residues 118–261, without the KGD motif (residues 115–117); the His tag is known from detection with anti-His antibody; also called sCD40L; WT sCD40L; source: recombinant, synthesized as described (13)
B6: recombinant soluble CD40L (residues 118–261) with no N-terminal KGD motif, wild type L155P (protein)
chain: T2 sequence (looked up) with R11S, G12E, L38P
B7: recombinant soluble CD40L (residues 118–261) with no N-terminal KGD motif, wild type G144E (protein)
chain: T2 sequence (looked up) with R11S, G12E, G27E
B8: CD40 fragment (residues 21–144) fused to GST (domain or fragment, UniProt P25942 21-144, looked up)
chain: EPPTACREKQYLINSQCCSLCQPGQKLVSDCTEFTETECLPCGESEFLDTWNRETHCHQHKYCDPNLGLRVQQKGTSETDTICTCEEGWHCTSEACESCVLHRSCSPGFGVKQIATGVSDTICE
notes: also called CD40 fused to GST

How the values were obtained:
[1] = biological target: B5; assay: ELISA; CD40L immobilized; cyclic site 2 peptides of β1 or β3 fused to GST in solution; bound GST measured with HRP-conjugated anti-GST; settings: both partners purified
[2] = biological target: T1, recombinant soluble integrin αvβ3, …; assay: ELISA; settings: chain shown with the change; immobilized CD40L mutants 10 μg/ml; soluble αvβ3 5 μg/ml in HEPES-Tyrodes buffer, 1 mM Mn2+; detection with anti-β3 (AV10); parent: est. 0.48; read off a plot
[3] = biological target: B8; assay: ELISA; CD40 fragment (21–144) fused to GST coated on wells (100 μg/ml in PBS); sCD40L (WT or mutant) incubated 1 h; bound sCD40L measured with HRP-conjugated anti-His; settings: both partners purified
[4] = biological target: T2, sCD40L (residues 118–261) S128R/E129G …; assay: as above; settings: both partners purified
[5] = biological target: T3, sCD40L (residues 118–261) L155P HIGM1 …; assay: as above; settings: both partners purified
[6] = biological target: T4, sCD40L (residues 118–261) G144E HIGM1 …; assay: as above; settings: both partners purified
[7] = biological target: T5, sCD40L (residues 118–261) K143T HIGM1 …; assay: as above; settings: both partners purified

Binder: B1
- binding result [1]: binds

Binder: B2
- binding result [1]: binds

Binder: B3
- response [2]: 0.046 OD450

Binder: B4
- response [2]: 0.33 OD450

Binder: B5
- binding result [3]: binds

Binder: B6
- response [2]: 0.042 OD450

Binder: B7
- response [2]: 0.4 OD450

Binder: B8
- binding result [4]: binds
- binding result [5]: binds
- binding result [6]: binds
- binding result [7]: binds
